Laboratory results taken from publication PMC4154664.

B1: B. malayi NMT (BmNMT, myristoyl-CoA:protein N-myristoyltransferase) (Brugia malayi) (protein)
chain: MKEPPAGNIKLDDEDEKMMAAGNSKMDQNNDKENDAGDESIQNVTGRNSPTAVIDLKELTESTLMKKFEMLTVGGTSAAKHITEAQRHKYLFWDTQPVPKINEMVTENRAIEPPLDISEVREEPFSLPDPFCWCDIEINSVKELTELYTLLTENYVEDDDNMFRFDYSPEFLLWALKAPGWMKNWHCGVRAKSNGKLIAFISAIPSVIRVYDKQIKMVEINFLCVHKKLRSKRVAPVLIREITRRVNREGIFQAVFTAGVVLPKPIATCRYWHRSLNPKKLIEVKFSHLSRKMTMQRTLKLYKLPDHPRTANLVPMKKCHIDGAYGLLQCYLKKFDLSPQFTRADFEHFFMPREDVIYSYVALNEEDSKVSDLISFYSLPSSVMHHPQYKSIRAAYSFYNVATSVTLKQLINDALILARNCGFDVFNALDLMDNKEILEDLKFGIGDGNLQYYLYNWKCPDIIPEKIGLVLQ
B2: C. elegans NMT (CeNMT, myristoyl-CoA:protein N-myristoyltransferase) (Caenorhabditis elegans) (protein)
chain: MSHGHSHDGAPCGGHHGDDGAGGSRPSVNDVQALVDQLRLAGVDVSNMPNIPTAPRDMDEARSKSFQFWSTQPVPQMDETVPADVNCAIEENIALDKVRAEPFSLPAGFRWSNVDLSDEEQLNELYNLLTRNYVEDDDSMFRFDYSADFLKWALQVPGFRPEWHCGVRADSNNRLLAFIGAVPQTVRVYDKTVNMVEINFLCVHKNLRSRRVAPVLIREITRRVNVTGIFQAAFTAGIVIPKPVSVCRYYHRSLNPRKLIDVRFSHLSAKMTMARTIKLYKLPEETATRNLREMKSTDVPQVFKLLTTSLKQYSLAPVYNSEEELAHALVPKKGVVYSYVAENQNGKITDFVSFYSLPSTVMGHTTHKTIYAAYLYYYVAGSVTPKQLINDSLILANREKFDVFNALDLMHNEKIFSDLKFGKGDGNLQYYLYNWKCADMKPSQIGLVLQ

Substrate: CCCCCCCCCCCCCC(=O)SCCNC(=O)CCNC(=O)[C@H](O)C(C)(C)COP(=O)(O)OP(=O)(O)OC[C@H]1O[C@@H](n2cnc3c(N)ncnc32)[C@H](O)[C@@H]1OP(=O)(O)O
Assay: purified protein

Protein | Km [µM]
B1 | 4.4
B2 | 12.2
